Data from the nanobody polyreactivity screen of Harvey et al. (2022).

Experiment: yeast display, Sf9 membrane polyspecificity reagent, FACS + sequencing; frameworks hold sequencing errors
Method in brief: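 In a synthetic yeast display library (Saccharomyces cerevisiae BJ5465), nanobody expression was induced with galactose for 36–48 hours. FACS gates were set low and high (top ~1%) using anti-HA fluorescence for expression and streptavidin fluorescence for binding of the Sf9 membrane reagent. Each polyreactivity label is drawn from the gate of origin.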

Sequence | polyreactivity (PSR sort gate)
QVQLVESGGGLVQAGGSLRLSCAASGRIFDSYAMGWYRQAPGKERELVATISWDSASTYYADSVKGRFTISRDYAKNTVYLQMNSLKPEDTAVYYCAAGGSSSWAFNYWGQGTQVTVSS | low polyreactivity
QVQLVESGGGLVQAGGSLRLSCAASGRIFDVNAMGWYRQAPGKERELVAAINKSGGTTYYADSVKGRFTISRDNAKNTVYLQMYSLKPEDTAVYYCAADSYSSRYDYWGQGTQVTVSS | high polyreactivity
QVQLVESGGGLVQAGGSLRLSCAASGRIFDVNAMGWYRQAPGKERELVAAITDSDGSTYYADSVKGRFTISRDNAKNTVYLQMNSLKPEDTAVYYCAATQEPVTPQPYGYWGQATQVTVSS | low polyreactivity
QVQLVESGGGLVQAGGSLRLSCAASGRIFDYNAMRRYRQAPGKERELVAAINSGGSTYADSVKGRFTISRDNAKNTVYLQMNSLKPEDTGVYDCAKSLGQTVWEYDSWGQGTQVTVSS | low polyreactivity
QVQLVESGGGLVQAGGSLRLSCAASGRIFDYYAMGWYRQAPGKERELVARISSSGGSTYYADSVKGRFTISRDNAKNTVYLQKNSLKPEDTAVSYCDARSPRYWLRLREYWGQGTQVTVSS | high polyreactivity
QVQLVESGGGLVQAGGSLRLSCAASGRIFDYYAMGWYRQEAGKERELVARITSGGTTNYADSVKGRFTISRDNAKNTVYLQMNSLKPEDTAVYYCNAQDYSDPLQMDYWGQCTQVTVSS | low polyreactivity
QVQLVESGGGLVQAGGSLRLSCAASGRIFEDNGMGWYRQAPGKEREFVATISWDGDRTYYADSVKGRFTISRDNAKNTVYLQMNSLKPEDTAVYYCNADLPLWPVRGYEYWGQGTQVTVSS | low polyreactivity
QVQLVESGGGLVQAGGSLRLSCAASGRIFEFYAMGWYRQAPGKERELVAAISFSGTSTYYADSVKGRFTISRDNAKNTVYLQMNSLKPEDTAVYYCAVRGVGADYDYWGQGTQVTVSS | low polyreactivity
QVQLVESGGGLVQAGGSLRLSCAASGRIFERYAMGAYRQAPGKERELVAAISVSGSGTFYADSVKGLFTISRDNAKNTVYLQMNSLKTEDTAVYYCAADASLLGLFQGYDYWGQGTQVSVSS | low polyreactivity
QVQLVESGGGLVQAGGSLRLSCAASGRIFETNAMGWYRQAPGKERELVAVITRGGSTYYADSVKGSFTISRDNAKNTVYLQMNSLKPEVTALYYCNVRRLYGYGYYYWGQGTQVTVSW | low polyreactivity
QVQLVESGGGLVQAGGSLRLSCAASGRIFEVYDMGWYRQAPGKERELVAAISESDDNTYYADSVKGRFTISRDNAKNTVYLQMNSLKPEDTAVYYCNADVPGDTGWWGFDYWGQGTQVTVSS | low polyreactivity
QVQLVESGGGLVQAGGSLRLSCAASGRIFEVYTMGWYRQAPGKERELVAAIDRSTGSTYYADSVKGRFTISRDNAKNTVYLQMNSLKPEDTAVYYCAARGTFLGTRPLGRFDYWGQGTQVTVSS | low polyreactivity
QVQLVESGGGLVQAGGSLRLSCAASGRIFEYIAMGWYRQAPGKERELVAAITSDGSTNDADSVKGRFTISRDNAKNTVYLQMNSLNPEDTAVYYCNTRYSLYTKYAYYDEHDYWGQGTQVTVSS | low polyreactivity
QVQLVESGGGLVQAGGSLRLSCAASGRIFEYYAMGWYRQAPGKERELVAAINTGGNTYYADSVKGRFTLSRDNAKNTVYLQMNSLKPEDTAVYYCATYPIWYCGYLSGTDYDYWGQGTQVTVSS | low polyreactivity
QVQLVESGGGLVQAGGSLRLSCAASGRIFFANAMGWYRQAPGKERELVAAISYSGTSTYYADSVKGRFTISRDNAKNSVYLQMNSLKPEDTAVYYCNAGRYIKMGDWGQGTQVTVSS | high polyreactivity
QVQLVESGGGLVQAGGSLRLSCAASGRIFFGYAMGWYRQAPGKERELVASISRGGSTNYADSVKGRFTISRDNAKNTVYLEMNSLKPEDTAVYYCAASRRRWSQQQGYGYYYWGQGTQVTVSS | high polyreactivity

Sequence | polyreactivity (PSR sort gate)
QVQLVESGGGLVQAGGSLRLSCAASGRIFFKNAMGWYRQAPGKERELVAAITWSGGRTYYADSVKGRFTISRDNAKNTVYLQMNSLKPEDTAVYYCNALAPSPYDWGQGTQVTVSS | high polyreactivity
QVQLVESGGGLVQAGGSLRLSCAASGRIFFKNTMGWYRQAPGNESELVAAITSSGSSTYYADSVKARFTISRDNSKNNVYLQMNSLKPEDTAVYYCNALTWDHSRTGVDYWGQGTQVTVSS | low polyreactivity
QVQLVESGGGLVQAGGSLRLSCAASGRIFFLNAMGWYRQAPGKERELVATISWTGGSTYYADSVKGRFTISRDNAKNTVDLQMTSLKPEDTAGYYCAKDGTNWGHAFDSWGQGTEVTVSS | low polyreactivity
QVQLVESGGGLVQAGGSLRLSCAASGRIFFNYAMGWYRQAPGKERELVAAITRSGGRTYYADSVKGRFTISRDNAKNTVYLQMNSLKPEDTAVYYCAADSGSRGSVAHEYWGQGTQVTVSS | high polyreactivity
QVQLVESGGGLVQAGGSLRLSCAASGRIFFRNAMGWYRQAPGKERELVAVINTGGSTNYADSVKGRFTISRDNAKNTVYLQMNSLKPEDTAVYYCAVDRASRRTYNQYGYWGQGTQVTVSS | high polyreactivity
QVQLVESGGGLVQAGGSLRLSCAASGRIFFRNTMGWYRQAPGKERELVAAISGSGGSTYYADSVKGRFTISRDNAKNTVYLQMNSLKPEDTAVYYCAKRWLYPISYDYWGQGTQVTVSS | high polyreactivity
QVQLVESGGGLVQAGGSLRLSCAASGRIFFRYVMGWYRPAPGKERELVATSTRSGGTTYYADSVKGRFTISRDNAKNTVYLQMNSLKPEDTAVYYCATDYTYHRVGPLYGFWGQGTQLTVSS | low polyreactivity
QVQLVESGGGLVQAGGSLRLSCAASGRIFFWYVMGWYRQAPGKERELVAAISSGGRTYYADSVKGRFTISRDNAKNTVYLQMNSLKPEDTAVYYCNVEEYHVRADIGYSNYGYWGQGTQVTVSS | low polyreactivity
QVQLVESGGGLVQAGGSLRLSCAASGRIFFYYAMGWYRQAPGKERELVATISYSGGCTYYADSVKGRFTISRDNAKNTVYLQMNSLKPEETAVYYCNARWGTPYYIQDFDYWGQGTQVTVSS | low polyreactivity
QVQLVESGGGLVQAGGSLRLSCAASGRIFGAYAMGWYRQAPGKEREFVAAITWRGGSTYYADSVKGRFTISRDNAKNTVYLQMNSLKPEDTAVYYCAADQFTGSVWAYYYWGQGTQVTVSS | high polyreactivity
QVQLVESGGGLVQAGGSLRLSCAASGRIFGAYAMGWYRQAPGKERELVAAITFRGGSTYYADSVKGRFTISRDNAKNTVYLQMNSLKPEDTAVYYCAADILDYLHIYDYWGQGTQVTVSS | low polyreactivity
QVQLVESGGGLVQAGGSLRLSCAASGRIFGEYALGWYRQDPGKERELVARISRSGGSTYADSVKGRFTISRDNAKNTVYFQMNSLKPEVTAVYYCNADAYGTPEFTSYAVRYDYWGQGTQVTVSS | low polyreactivity
QVQLVESGGGLVQAGGSLRLSCAASGRIFGFNAMGWYRQAPGKERELVAGITDSSGRTNYADSVKGRFTISRDNAKNTVYLEMNSLKPEDTAVLYCAKDGLVITAVGSDLWGHGTQVTVSS | low polyreactivity
QVQLVESGGGLVQAGGSLRLSCAASGRIFGGNAMGWYRQAPAKERELVAAISKRGGSTYYADSVKGRFTISRDNAKNTVYLQMNSLKPEDTAVDYCAATAYADQGLDYGYWGQGTQVTVSS | high polyreactivity
QVQLVESGGGLVQAGGSLRLSCAASGRIFGGNAMGWYRQAPGKERQLVAAISKRGGSTYYADSVKGRFTISRDNAKNTVYLQMNSLKPEDTAVYYCAATPYSDQGLDYGYWGQGTQVTVSS | high polyreactivity
QVQLVESGGGLVQAGGSLRLSCAASGRIFGGNAMVWYRQAPGKERELVAAITTRGGSTYADSVKGRFTISRDNAKNTVYLQMNSLKPEDSAVYYCNKRYVIRRRGYDYWGQGTQVTVSS | low polyreactivity
